Patent US8168160B2, “Anti-inflammatory fusion protein” (Eberhard-Karls-Universität Tübingen, priority 2006, dated 2012)

What was measured:
[1] = system: foam cell formation from CD34+ stem cells co-cultivated with thrombocytes; experiment: Foam cell formation by co-cultivation of CD34+ stem cells with thrombocytes, counted by phase contrast microscopy; format: cell-based, human
Method: To isolate human thrombocytes venous blood was withdrawn from healthy test persons and collected into acidic citrate dextrose (ACD) buffer. After the centrifugation at 430 g for 20 minutes the platelet-rich plasma (PRP) was removed, added to Tyrodes HEPES buffer (2.5 mM HEPES, 150 mM NaCl, 1 mM […], 2.5 mM NaHCO3, 0.36 mM NaH2PO4, 5.5 mM glucose, 1 mg/ml BSA, pH 6.5) and centrifuged at 900 g for 10 minutes. After the removal of the supernatant the thrombocyte containing pellet was suspended in Tyrodes HEPES buffer (pH 7.4).
Human CD34^+ cells were isolated from human cord blood. This was obtained after the approval of the local ethics committee from healthy women immediately after the birth of a child. At least 95% of the isolated cells were positive for CD34^+ which was confirmed by means of flow cytometry analysis after each isolation. Human mononuclear cells were also obtained from cord blood by density gradient centrifugation on the Biocoll separation solution (BIOCROM Berlin, Germany) at 600 g for 15 minutes. CD34^+ cells were enriched by immunoaffinity selection (CD34 progenitor cell isolation kit; Milteenyi Biotec, Bergisch Gladbach, Germany) according to the manual of the producer. In the following the cells were incubated on 96 well plates which were covered with 0.2% gelatine. For the cultivation of the cells IMDM with glutamax, supplemented with 5% heat-inactivated fetal calf serum, […] penicillin-streptomycin, 1% MEM vitamins and 1% non-essential amino acids were used, all purchased from Gibco (Invitrogen, Karlsruhe, Germany). CD34^+ progenitor cells (50000 cells) were co-cultivated at 37° C. and 5% CO2 with thrombocytes (2×10^8-ml) in 96 well plates which were pre-covered with 0.2% gelatine. The formation of foam cells was counted in six windows by means of phase contrast microscopy.
Foam cells were produced by co-incubation of CD34^+ stem cells with thrombocytes for 10 days in vitro. […] In the following it was microscopically analyzed whether the foam cell formation was inhibited by the incubation with the CD68-Fc homodimers. […]

[2] = system: atherosclerotic plaque tissue; experiment: Immunohistological analysis of thrombus endarterectomy preparations of the Arteria carotis; format: binding; settings: human thrombus endarterectomy preparations of Arteria carotis (FIG. 5B)
Method: (§1) Atherosclerotic plaques from the carotid of patients, removed within the context of a surgery, were disintegrated, suspended, transferred to culture plates and surface-dried. Then a specific ELISA against the Fc portion of the CD68 or GPVI or pure Fc, respectively, was performed. In a parallel immunohistological analysis of human tissue from thrombus endarterectomy preparations of the Arteria carotis were performed.

[3] = system: atherosclerotic vessels of Apo E mice; experiment: In vivo application of J124-labeled CD68-Fc, ex vivo autoradiography of vessels; settings: A. carotis; Apo E mice in relation to wild type (FIG. 6)
Method: Furthermore an in vivo application of J124-labeled CD68-Fc in atherosclerotic Apo E mice and in wild type mice was performed. J124-labeled CD68-Fc was administered into 24 weeks old atherosclerotic mice or in control wild type mice without any significant atherosclerosis. The organs were then removed and the A. carotis on both sides and the aortic arch were analyzed by autoradiography ex vivo.
A staining with oil-red and a corresponding autoradiography is shown in partial figure (B).

MMP-9 = MMP-9 expression in the supernatant of foam cells; format: cell-based, human
Method: Moreover the method of ROS (“Reactive Oxygen Species”) measurement was used. Typically in the course of an inflammation process monocytes infiltrate the vascular wall, there differentiate into macrophages and produce cytokines, proteases such as the matrix metalloproteinase (MMP) and complement factors, but also free oxidized radicals, i.e. ROS. For the foam cells resulting from the co-incubation of CD34^+ stem cells with thrombocytes in vitro it was detected that they release ROS and also produce matrix metalloproteinase 9 (MMP-9).
The bands correspond to the expression level of MMP-9. In the corresponding lanes the following samples were loaded: 1. control CD34, 2. control CD34, 3. control protein 100 µg/ml, 4. control protein 400 μg/ml, 5. CD68-Fc homodimer 100 µg/ml, 6. CD68-Fc homodimer 200 µg/ml, 7. CD68-Fc homodimer 400 µg/ml, 8. Fluvastatin 1 μM.

[4] = system: atherosclerotic plaque tissue from the carotid of patients; experiment: Specific Fc-ELISA on atherosclerotic plaques in vitro; format: binding; settings: disintegrated, surface-dried human carotid plaques (FIG. 5A)
Method: as §1

[5] = increasing concentrations (summary statement)

B1: CD68-Fc homodimer: Fusion of extracellular domain of human CD68 with mutated human IgG1 Fc via three amino acid connecting element (SEQ ID No. 6), secreted as disulfide-linked homodimer (protein)
chain: NDCPHKKSATLLPSFTVTPTVTESTGTTSHRTTKSHKTTTHRTTTTGTTSHGPTTATHNPTTTSHGNVTVHPTSNSTATSQGPSTATHSPATTSHGNATVHPTSNSTATSPGFTSSAHPEPPPPSPSPSPTSKETIGDYTWTNGSQPCVHLQAQIQIRVMYTTQGGGEAWGISVLNPNKTKVQGSCEGAHPHLLLSFPYGHLSFGFMQDLQQKVVYLSYMAVEYNVSFPHAAQWTFSAQNASLRDLQAPLGQSFSCSNSSIILSPAVHLDLLSLRLQAAQLPHTGVFGQSFSCPSDRSGGRESKSCDKTHTCPPCPAPEAAAAPSVFLFPPKPKDTLMISRTPEVTCVVVDVSHEDPEVKFNWYVDGVEVHNAKTKPREEQYNSTYRVVSVLTVLHQDWLNGKEYKCKVSNKALPASIEKTISKAKGQPREPQVYTLPPSRDELTKNQVSLTCLVKGFYPSDIAVEWESNGQPENNYKTTPPVLDSDGSFFLYSKLTVDKSRWQQGNVFSCSVMHEALHNHYTQKSLSLSPGK
modifications: homodimer; Recombinant CD68-Fc fusion protein
[1]; co-incubation of CD34+ stem cells with thrombocytes for 10 days in vitro, microscopic analysis (FIG. 3B)
  foam cell formation: inhibited the formation of the foam cells
[1]; concentration of 400 μg/ml, pure Fc as control (FIG. 3C)
  foam cell formation, dependence on dosage: virtually completely inhibited
[1]; [5]
  formation of foam cells in co-cultivation assays in vitro: significant inhibition of the formation of foam cells
[2]
  binding to atherosclerotic plaque tissue (immunohistology): significant binding
[3]
  accumulation in vessels (autoradiography ex vivo): No significantly increased accumulation
MMP-9; 100, 200 and 400 μg/ml (lanes 5, 6, 7), in relation with control protein (FIG. 4)
  expression of MMP-9 in the supernatant of foam cells: clear inhibition of the formation of MMP-9
MMP-9; [5]
  secretion of MMP-9 by foam cells: can be inhibited
[4]
  binding to atherosclerotic plaque tissue (Fc-ELISA): significant binding
